Results on four molecules are retold here after patent US20240132578A1.

A value given as a limit tells only on which side of the number the result lay.

Assay in all cases: cell-based or functional assay
Assay [1] has as its target Envelope protein of control pseudovirus MuLV (MuLV).
Assay [2] deals with HIV-1 92RW020 envelope glycoprotein (Env), on pseudovirus (HIV-1 isolate 92RW020 (clade A)).
Assay [3] has as its target HIV-1 ADA envelope glycoprotein (Env), on pseudovirus (HIV-1 isolate ADA).
For assay [4], the target named is HIV-1 Env of pseudovirus AC10 (HIV-1).
The target in assay [5] is HIV-1 Env of pseudovirus CAAN (HIV-1).
Assay [6] addresses HIV-1 Env of pseudovirus CAP45 (HIV-1).
The target of assay [7] is HIV-1 Env of pseudovirus DU156 (HIV-1).
In assay [8] the target is HIV-1 Env of pseudovirus DU422 (HIV-1).
Assay [9] has as its target HIV-1 Env of pseudovirus Du172 (HIV-1).
Assay [10] concerns the target HIV-1 Env of pseudovirus PVO.4 (HIV-1).
For assay [11], the target named is HIV-1 Env of pseudovirus REJ04541 (HIV-1).
Assay [12] has as its target HIV-1 Env of pseudovirus THRO.18 (HIV-1).
In assay [13] the target is HIV-1 Env of pseudovirus TR0.11 (HIV-1).
Assay [14] addresses HIV-1 Env of pseudovirus ZM214 (HIV-1).
Assay [15] has as its target HIV-1 Env of pseudovirus ZM233 (HIV-1).
Assay [16] has as its target HIV-1 Env of pseudovirus ZM249 (HIV-1).
Assay [17] has as its target HIV-1 JR-FL Env E168K, on pseudovirus (HIV-1 isolate JR-FL (clade B)).
The target of assay [18] is HIV-1 Env of isolate 6535.3 (subtype B) (HIV-1).
The target in assay [19] is HIV-1 Env of isolate 92BR020 (subtype B) (HIV-1).
The target in assay [20] is HIV-1 Env of isolate 93TH305 (subtype B) (HIV-1).
Assay [21] deals with HIV-1 Env of isolate APV 13 (subtype B) (HIV-1).
The target in assay [22] is HIV-1 Env of isolate APV 6 (subtype B) (HIV-1).
Assay [23] deals with HIV-1 Env of isolate APV_17 (subtype B) (HIV-1).
Assay [24] concerns the target HIV-1 Env of isolate MGRM-G-001 (subtype G), on pseudovirus (HIV-1).
For assay [25], the target named is HIV-1 Env of isolate MGRM-G-004 (subtype G), on pseudovirus (HIV-1).
Assay [26] addresses HIV-1 Env of isolate MGRM-G-006 (subtype G), on pseudovirus (HIV-1).
Assay [27] concerns the target HIV-1 Env of isolate MGRM-G-009 (subtype G), on pseudovirus (HIV-1).
The target in assay [28] is HIV-1 Env of isolate MGRM-G-011 (subtype G), on pseudovirus (HIV-1).
Assay [29] has as its target HIV-1 Env of isolate MGRM-G-013 (subtype G), on pseudovirus (HIV-1).
For assay [30], the target named is HIV-1 Env of isolate MGRM-G-014 (subtype G), on pseudovirus (HIV-1).
In assay [31] the target is HIV-1 Env of isolate MGRM-G-015 (subtype G), on pseudovirus (HIV-1).
Assay [32] concerns the target HIV-1 Env of isolate MGRM-G-016 (subtype G), on pseudovirus (HIV-1).
In assay [33] the target is HIV-1 Env of isolate MGRM-G-017 (subtype G), on pseudovirus (HIV-1).
The target in assay [34] is HIV-1 Env of isolate MGRM-G-019 (subtype G), on pseudovirus (HIV-1).
The target in assay [35] is HIV-1 Env of isolate MGRM-G-024 (subtype G), on pseudovirus (HIV-1).
The target in assay [36] is HIV-1 Env of isolate MGRM-G-025 (subtype G), on pseudovirus (HIV-1).
Assay [37] addresses HIV-1 Env of isolate MGRM-G-027 (subtype G), on pseudovirus (HIV-1).
Assay [38] concerns the target HIV-1 Env of isolate MGRM-G-028 (subtype G), on pseudovirus (HIV-1).
In assay [39] the target is aMLV envelope, on pseudovirus (negative control).

B1: 1503_H05 (PG16) (TCN-119) (antibody, V domains shown)
VH: QEKLVESGGGVVQPGGSLRLSCLASGFTFHKYGMHWVRQAPGKGLEWVALISDDGMRKYHSDSMWGRVTISRDNSKNTLYLQFSSLKVEDTAMFFCAREAGGPIWHDDVKYYDFNDGYYNYHYMDVWGKGTIVTVSS
VL: QSALTQPASVSGSPGQTITISCNGTRSDVGGFDSVSWYQQSPGKAPKVMVFDVSHRPSGISNRFSGSKSGNTASLTISGLHIEDEGDYFCSSLTDRSHRIFGGGTKVTVLG
Consider B1, for which the IC50, pseudovirus neutralization (TZM-bl assay), control virus in assay [1] was above 25 µg/mL. The IC50 (ug/ml), pseudovirus neutralization, TZM-bl assay came out at 0.02 µg/mL in assay [2], 0.003 µg/mL in [3] and 0.002 µg/mL in assay [17]. For the same molecule, the IC50, pseudovirus neutralization (TZM-bl assay) is below 0.01 µg/mL in [4]; 13.5 µg/mL in [5]; below 0.01 µg/mL in [6]; below 0.01 µg/mL in assay [7]; 0.71 µg/mL in [8]; below 0.01 µg/mL in assay [9]. Moreover, the IC50, pseudovirus neutralization (TZM-bl assay) in assay [10] is 11 µg/mL; in assay [11], 0.22 µg/mL; in assay [12], 4.12 µg/mL; in assay [13] it was 4.3 µg/mL; in assay [14], above 25 µg/mL; in assay [15], below 0.01 µg/mL. In addition, in assay [16], the IC50, pseudovirus neutralization (TZM-bl assay) was below 0.01 µg/mL.

B2: 1469_M23 (PG16) (TCN-118) (antibody, V domains shown)
VH: QEKLVESGGGVVQPGGSLRLSCLASGFTFHKYGMHWVRQAPGKGLEWVALISDDGMRKYHSDSMWGRVTISRDNSKNTLYLQFSSLKVEDTAMFFCAREAGGPIWHDDVKYYDFNDGYYNYHYMDVWGKGTTVTVSS
VL: QSALTQPASVSGSPGQTITISCNGTRSDVGGFDSVSWYQQSPGRAPKVMVFDVSHRPSGISNRFSGSKSGNTASLTISGLHIEDEGDYFCSSLTDRSHRIFGGGTKLTVLG
For the molecule B2, the IC50, pseudovirus neutralization (TZM-bl assay), control virus in assay [1] is above 25 µg/mL. Besides, the IC50 (ug/ml), pseudovirus neutralization, TZM-bl assay was 0.05 µg/mL in assay [2], 0.005 µg/mL in assay [3] and 0.005 µg/mL in assay [17]. The IC50, pseudovirus neutralization (TZM-bl assay) in [4] is below 0.01 µg/mL; in assay [5] it was 17.7 µg/mL; in [6] it was below 0.01 µg/mL; in assay [7], below 0.01 µg/mL; in assay [8], 0.97 µg/mL; in [9] it was below 0.01 µg/mL. Moreover, the IC50, pseudovirus neutralization (TZM-bl assay) is 21.2 µg/mL in assay [10]; 0.39 µg/mL in [11]; 7.01 µg/mL in [12]; 7.52 µg/mL in assay [13]; above 25 µg/mL in [14]; below 0.01 µg/mL in [15]. The molecule further yielded an IC50, pseudovirus neutralization (TZM-bl assay) in assay [16] below 0.01 µg/mL.

B3: 1456_A12 (PG16) (TCN-117) (antibody, V domains shown)
VH: HEQLVEAGGGVVQPGGSLRLSCLASGFTFHKYGMHWVRQAPGKGLEWVALISDDGMRKYHSDSMWGRVTISRDNSKNTLYLQFSSLRVEDTAMFFCAREAGGPIWHDDVKYYDFNDGYYNYHYMDVWGKGTKVTVSS
VL: QSALTQPASVSGSPGQTITISCNGTSRDVGGFDSVSWYQQSPGKAPKVMVFDVSHRPSGMSNRFSGSKSGNTASLTISGLHIEDEGDYFCSSLTDRSHRIFGGGTKLTVLG
As to B3, the IC50, pseudovirus neutralization (TZM-bl assay), control virus in assay [1] is above 25 µg/mL. Besides, the figures for the IC50 (ug/ml), pseudovirus neutralization, TZM-bl assay in [2], in [3] and in assay [17] were 0.05 µg/mL, 0.005 µg/mL and 0.003 µg/mL, respectively. Further, the IC50, pseudovirus neutralization (TZM-bl assay) in [4] is below 0.01 µg/mL; in assay [5], 10.6 µg/mL; in assay [6], below 0.01 µg/mL; in [7], below 0.01 µg/mL; in [8] it was 0.36 µg/mL; in [9], below 0.01 µg/mL. The IC50, pseudovirus neutralization (TZM-bl assay) in assay [10] was 10.4 µg/mL; in assay [11] it was below 0.01 µg/mL; in [12] it was 2.08 µg/mL; in [13], 3.05 µg/mL; in assay [14], above 25 µg/mL; in [15] it was below 0.01 µg/mL. In addition, the IC50, pseudovirus neutralization (TZM-bl assay) in assay [16] is below 0.01 µg/mL.

B4: PGT-137 (antibody, V domains shown)
VH: EVHLEESGPGLVRPSETLSLTCTASGGSIRGGEWGDSDYHWGWVRHSPEKGLEWIGSIHWRGTTHYNAPFRGRGRLSIDLSRNQFSLRLTSVTAEDTAVYYCVKHKYHDIVMVVPIAGWFDPWGQGLQVTVSS
VL: EIMMTQSPAILSVSPGDRATLSCRASQSVKNNLAWYQKRPGQAPRLLIFDTSSRASGIPARFSGGGSGTEFTLTVNSMQSEDFATYYCQQYEEWPRTFGQGTKVEIK
Consider B4, for which the IC50 (µg/mL), pseudovirus neutralization was above 50 µg/mL in [18]; 7.81 µg/mL in assay [19]; above 50 µg/mL in assay [20]; above 50 µg/mL in assay [21]; above 50 µg/mL in [22]; above 50 µg/mL in [23]. In addition, the IC50 (µg/mL), neutralization of pseudovirus was 41.7 µg/mL in [24]; above 50 µg/mL in assay [25]; above 50 µg/mL in assay [26]; above 50 µg/mL in [27]; above 50 µg/mL in [28]; above 50 µg/mL in assay [29]. For the same molecule, the IC50 (µg/mL), neutralization of pseudovirus in assay [30] is above 50 µg/mL; in assay [31], above 50 µg/mL; in assay [32] it was above 50 µg/mL; in assay [33], 34.9 µg/mL; in assay [34], 0.126 µg/mL; in assay [35], 0.051 µg/mL. Besides, the IC50 (µg/mL), neutralization of pseudovirus in assay [36] was above 50 µg/mL; in [37], 0.228 µg/mL; in assay [38], above 50 µg/mL; in [39], above 50 µg/mL.
